Data set [1] concerns the target T1, wild type human endothelial nitric oxide synthase (eNOS), histidine tagged, recombinant (human), P29474.
T1 chain: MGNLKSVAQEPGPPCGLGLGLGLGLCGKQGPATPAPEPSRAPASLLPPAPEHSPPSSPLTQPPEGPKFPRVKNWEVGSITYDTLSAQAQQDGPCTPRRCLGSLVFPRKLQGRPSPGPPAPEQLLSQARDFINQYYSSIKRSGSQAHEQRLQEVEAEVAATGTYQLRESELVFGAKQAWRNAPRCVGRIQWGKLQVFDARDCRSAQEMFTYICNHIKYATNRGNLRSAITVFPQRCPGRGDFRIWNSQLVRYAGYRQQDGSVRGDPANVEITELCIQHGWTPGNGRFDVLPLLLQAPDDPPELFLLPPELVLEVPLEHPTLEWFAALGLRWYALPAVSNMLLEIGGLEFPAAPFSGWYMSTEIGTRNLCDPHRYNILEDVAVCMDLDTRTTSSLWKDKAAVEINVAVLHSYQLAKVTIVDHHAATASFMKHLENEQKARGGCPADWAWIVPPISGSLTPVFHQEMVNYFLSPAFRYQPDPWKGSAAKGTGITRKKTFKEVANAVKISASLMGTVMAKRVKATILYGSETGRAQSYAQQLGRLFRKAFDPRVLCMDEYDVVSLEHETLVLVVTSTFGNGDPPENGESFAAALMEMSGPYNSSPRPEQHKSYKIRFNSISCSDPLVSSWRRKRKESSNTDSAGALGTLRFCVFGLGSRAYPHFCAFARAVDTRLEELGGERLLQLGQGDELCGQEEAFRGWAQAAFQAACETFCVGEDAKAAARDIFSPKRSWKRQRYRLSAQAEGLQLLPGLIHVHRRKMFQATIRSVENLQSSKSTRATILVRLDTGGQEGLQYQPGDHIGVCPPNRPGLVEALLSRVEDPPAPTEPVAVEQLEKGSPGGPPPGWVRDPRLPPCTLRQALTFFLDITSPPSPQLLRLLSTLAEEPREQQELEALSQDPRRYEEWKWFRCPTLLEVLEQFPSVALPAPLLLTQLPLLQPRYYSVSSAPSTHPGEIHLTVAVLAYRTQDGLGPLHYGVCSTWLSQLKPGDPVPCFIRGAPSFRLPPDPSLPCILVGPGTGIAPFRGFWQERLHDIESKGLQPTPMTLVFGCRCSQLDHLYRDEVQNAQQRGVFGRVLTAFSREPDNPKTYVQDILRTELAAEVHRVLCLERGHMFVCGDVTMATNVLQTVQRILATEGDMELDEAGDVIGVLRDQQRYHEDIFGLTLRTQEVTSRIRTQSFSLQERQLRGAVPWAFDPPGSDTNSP
Kind of data set: SEC. Particulars: remark: other sources report otherwise.

The data set “SEC” concerns the molecule itself. The data set can be described thus: SEC. For orientation: Size exclusion chromatography separates by hydrodynamic size, large species first.

Data on 2 molecules can be found in article PMC4297941 (Redox Biology, 2014).

B1: wild type human endothelial nitric oxide synthase (eNOS), histidine tagged, recombinant, P29474 1-1203 (enzyme)
chain: MGNLKSVAQEPGPPCGLGLGLGLGLCGKQGPATPAPEPSRAPASLLPPAPEHSPPSSPLTQPPEGPKFPRVKNWEVGSITYDTLSAQAQQDGPCTPRRCLGSLVFPRKLQGRPSPGPPAPEQLLSQARDFINQYYSSIKRSGSQAHEQRLQEVEAEVAATGTYQLRESELVFGAKQAWRNAPRCVGRIQWGKLQVFDARDCRSAQEMFTYICNHIKYATNRGNLRSAITVFPQRCPGRGDFRIWNSQLVRYAGYRQQDGSVRGDPANVEITELCIQHGWTPGNGRFDVLPLLLQAPDDPPELFLLPPELVLEVPLEHPTLEWFAALGLRWYALPAVSNMLLEIGGLEFPAAPFSGWYMSTEIGTRNLCDPHRYNILEDVAVCMDLDTRTTSSLWKDKAAVEINVAVLHSYQLAKVTIVDHHAATASFMKHLENEQKARGGCPADWAWIVPPISGSLTPVFHQEMVNYFLSPAFRYQPDPWKGSAAKGTGITRKKTFKEVANAVKISASLMGTVMAKRVKATILYGSETGRAQSYAQQLGRLFRKAFDPRVLCMDEYDVVSLEHETLVLVVTSTFGNGDPPENGESFAAALMEMSGPYNSSPRPEQHKSYKIRFNSISCSDPLVSSWRRKRKESSNTDSAGALGTLRFCVFGLGSRAYPHFCAFARAVDTRLEELGGERLLQLGQGDELCGQEEAFRGWAQAAFQAACETFCVGEDAKAAARDIFSPKRSWKRQRYRLSAQAEGLQLLPGLIHVHRRKMFQATIRSVENLQSSKSTRATILVRLDTGGQEGLQYQPGDHIGVCPPNRPGLVEALLSRVEDPPAPTEPVAVEQLEKGSPGGPPPGWVRDPRLPPCTLRQALTFFLDITSPPSPQLLRLLSTLAEEPREQQELEALSQDPRRYEEWKWFRCPTLLEVLEQFPSVALPAPLLLTQLPLLQPRYYSVSSAPSTHPGEIHLTVAVLAYRTQDGLGPLHYGVCSTWLSQLKPGDPVPCFIRGAPSFRLPPDPSLPCILVGPGTGIAPFRGFWQERLHDIESKGLQPTPMTLVFGCRCSQLDHLYRDEVQNAQQRGVFGRVLTAFSREPDNPKTYVQDILRTELAAEVHRVLCLERGHMFVCGDVTMATNVLQTVQRILATEGDMELDEAGDVIGVLRDQQRYHEDIFGLTLRTQEVTSRIRTQSFSLQERQLRGAVPWAFDPPGSDTNSP
The term stoichiometry N denotes the number of molecules, sites or subunits per partner or assembly. In the case of B1, the stoichiometry N in data set [1] is 2.

B2: C94R/C99R eNOS mutant, histidine tagged, recombinant (enzyme, human, UniProt P29474 1-1203, looked up)
chain: MGNLKSVAQEPGPPCGLGLGLGLGLCGKQGPATPAPEPSRAPASLLPPAPEHSPPSSPLTQPPEGPKFPRVKNWEVGSITYDTLSAQAQQDGPRTPRRRLGSLVFPRKLQGRPSPGPPAPEQLLSQARDFINQYYSSIKRSGSQAHEQRLQEVEAEVAATGTYQLRESELVFGAKQAWRNAPRCVGRIQWGKLQVFDARDCRSAQEMFTYICNHIKYATNRGNLRSAITVFPQRCPGRGDFRIWNSQLVRYAGYRQQDGSVRGDPANVEITELCIQHGWTPGNGRFDVLPLLLQAPDDPPELFLLPPELVLEVPLEHPTLEWFAALGLRWYALPAVSNMLLEIGGLEFPAAPFSGWYMSTEIGTRNLCDPHRYNILEDVAVCMDLDTRTTSSLWKDKAAVEINVAVLHSYQLAKVTIVDHHAATASFMKHLENEQKARGGCPADWAWIVPPISGSLTPVFHQEMVNYFLSPAFRYQPDPWKGSAAKGTGITRKKTFKEVANAVKISASLMGTVMAKRVKATILYGSETGRAQSYAQQLGRLFRKAFDPRVLCMDEYDVVSLEHETLVLVVTSTFGNGDPPENGESFAAALMEMSGPYNSSPRPEQHKSYKIRFNSISCSDPLVSSWRRKRKESSNTDSAGALGTLRFCVFGLGSRAYPHFCAFARAVDTRLEELGGERLLQLGQGDELCGQEEAFRGWAQAAFQAACETFCVGEDAKAAARDIFSPKRSWKRQRYRLSAQAEGLQLLPGLIHVHRRKMFQATIRSVENLQSSKSTRATILVRLDTGGQEGLQYQPGDHIGVCPPNRPGLVEALLSRVEDPPAPTEPVAVEQLEKGSPGGPPPGWVRDPRLPPCTLRQALTFFLDITSPPSPQLLRLLSTLAEEPREQQELEALSQDPRRYEEWKWFRCPTLLEVLEQFPSVALPAPLLLTQLPLLQPRYYSVSSAPSTHPGEIHLTVAVLAYRTQDGLGPLHYGVCSTWLSQLKPGDPVPCFIRGAPSFRLPPDPSLPCILVGPGTGIAPFRGFWQERLHDIESKGLQPTPMTLVFGCRCSQLDHLYRDEVQNAQQRGVFGRVLTAFSREPDNPKTYVQDILRTELAAEVHRVLCLERGHMFVCGDVTMATNVLQTVQRILATEGDMELDEAGDVIGVLRDQQRYHEDIFGLTLRTQEVTSRIRTQSFSLQERQLRGAVPWAFDPPGSDTNSP
B2: the “stoichiometry N” value in the data set “SEC” was 2.
